B1: Hammerhead Ribozyme (parent)
chain: ACCGGAUGUGCUUUCCGGUCUGAUGAGUCCGUGAGGACGAAACAG

Variants of: B1
Test: self-cleavage, relative activity (ratio to wild type); higher = more cleavage; co-transcriptional

Variant | self-cleavage
C2G G22U | 0.312
C20A G27C | 0.369
G39U A41C | 0.368
U13A G36A | 0.732
G27A G33U | 0.976
G22C U32G | 0.315
U7C A42U | 0.312
U14G C30A | 0.924
C2U G5U | 0.535
G17U A44U | 0.469
A34G A40U | 0.334
C20U A44U | 0.324
G10C U32G | 0.638
C15G U19A | 0.336
C29A A34C | 0.494
U19A A34G | 0.36
C3A C20G | 0.254
U9A G31C | 1.18
U19G A26C | 0.323
U19G A26U | 0.332
G18C U32G | 0.503
U13G C20U | 0.435
U28G C38G | 0.542
C15A C43G | 0.337

Variant | self-cleavage
C15A C43A | 0.341
A40U A42C | 0.369
U32G C43U | 0.43
C15A A23U | 0.276
U9C U13G | 0.946
G10U C38U | 1.09
A26U A41G | 0.434
G8U A23C | 0.504
C16A A40G | 0.297
U28G C29A | 0.878
A23U G25U | 0.315
G27A C43A | 0.347
C30G G33C | 0.807
U12G C30U | 0.983
C16U A37C | 0.843
U12C A40C | 0.531
A26C G36C | 0.277
A26C | 0.7
A34U A42C | 0.3
A1C G33A | 0.57
A44U G45A | 0.607
G4A C20A | 0.402
G8A A34C | 0.936
U19A A40C | 0.339

Variant | self-cleavage
C11G C38A | 0.718
U13G A44C | 0.567
C2G G45A | 0.349
G22C U24G | 0.281
G39A A40U | 0.291
U7G G31A | 1.25
G36A G45U | 0.452
G8A G39C | 0.298
C3G G17C | 0.617
G8A U21A | 0.475
A1C C20G | 0.354
G4A C38U | 0.453
U13A A40U | 0.379
G31C G39C | 0.314
U21A G25C | 0.312
G18C A26G | 0.319
C30G G39A | 0.26
U14A A26G | 0.343
U32G G39A | 0.362
G4U G8C | 0.377
C20U G45C | 0.471
C20U G45A | 0.359
G35A A42G | 0.252
U7G C15G | 0.699

Variant | self-cleavage
G8A C30G | 1.04
G4C U28G | 0.326
A26C A44C | 0.406
C38G G39A | 0.285
C15G A26G | 0.364
U13C C29G | 0.723
G8C U24G | 1.05
U13A C29A | 0.759
U13A C29G | 0.922
A37C A41U | 0.296
U21C G31U | 0.83
A23C A37C | 0.384
G4A G25A | 0.313
G5A U19A | 0.382
C2A G36A | 0.353
A23C G31C | 0.533
G17A G18U | 0.318
C2U A6U | 0.865
C2U A6G | 0.927
C20A U28G | 0.552
C29G A40C | 0.288
U12C C38G | 0.663
C2G A23G | 0.318
C2G A23C | 0.294

Variant | self-cleavage
C3A U14G | 0.672
C3U C38G | 0.745
U14A G39C | 0.276
C15A G33U | 0.893
G5U G17C | 0.309
C3A A41C | 0.299
G5A A34U | 1.06
U13C G35U | 0.744
G36C G45U | 0.367
C29G G33A | 0.788
C16G C38G | 0.358
G25U G35A | 0.282
A23C A42U | 0.331
C30A G39A | 0.348
U14C A42C | 0.33
C3U U14G | 0.78
G4A C43G | 0.29
C2A U14G | 0.697
U32C G39U | 0.369
G8C G39U | 0.441
G10U U28G | 0.664
U21G G39C | 0.314
C15A G18C | 0.364
G17U G22U | 0.359

Variant | self-cleavage
A26U G27C | 0.317
C3U C11A | 1.16
C3U G18C | 0.472
U28C G36C | 0.297
A1G C38A | 0.973
C11A G25C | 0.284
G18C C20U | 0.339
G4A C30U | 0.526
C16A A23C | 0.32
C29U C30U | 0.656
C11G A26C | 0.725
U7A A34U | 1.22
G27C U32A | 0.716
G4U C11G | 0.52
U21G A40U | 0.331
A1U C30U | 0.897
G22A A34G | 0.365
G5A A41U | 0.327
A1C G35C | 0.406
U21C A41U | 0.469
U13G U32G | 0.74
C43G G45A | 0.327
U21C G45A | 0.436
C16U U32C | 0.879

Variant | self-cleavage
C16U U32G | 1
A23U G45A | 0.336
C2U C29U | 1.29
A26G G33C | 0.409
G8C C29U | 0.758
G5A U9G | 0.88
G27C A37C | 0.491
G22A C43U | 0.318
A23U G33C | 0.262
G8A U24A | 1.11
G10U C20A | 0.42
G4A U14A | 0.49
G4A U14C | 0.404
G27A U32G | 0.628
A1C G5C | 0.286
G10A U32G | 0.936
G18A G27C | 0.43
G25U G39A | 0.318
C2A C15G | 0.319
C2A C15A | 0.378
C3A U32A | 0.7
C11A C38U | 1.1
U9C U19C | 0.514

— the RNAGym collection of RNA variant scans (doi:10.7554/elife.80360)
